Results published in IntAct's records for PubMed 10946006.

B1: Microsomal triglyceride transfer protein large subunit (Homo sapiens), P55157 (parent)
chain: MILLAVLFLCFISSYSASVKGHTTGLSLNNDRLYKLTYSTEVLLDRGKGKLQDSVGYRISSNVDVALLWRNPDGDDDQLIQITMKDVNVENVNQQRGEKSIFKGKSPSKIMGKENLEALQRPTLLHLIHGKVKEFYSYQNEAVAIENIKRGLASLFQTQLSSGTTNEVDISGNCKVTYQAHQDKVIKIKALDSCKIARSGFTTPNQVLGVSSKATSVTTYKIEDSFVIAVLAEETHNFGLNFLQTIKGKIVSKQKLELKTTEAGPRLMSGKQAAAIIKAVDSKYTAIPIVGQVFQSHCKGCPSLSELWRSTRKYLQPDNLSKAEAVRNFLAFIQHLRTAKKEEILQILKMENKEVLPQLVDAVTSAQTSDSLEAILDFLDFKSDSSIILQERFLYACGFASHPNEELLRALISKFKGSIGSSDIRETVMIITGTLVRKLCQNEGCKLKAVVEAKKLILGGLEKAEKKEDTRMYLLALKNALLPEGIPSLLKYAEAGEGPISHLATTALQRYDLPFITDEVKKTLNRIYHQNRKVHEKTVRTAAAAIILNNNPSYMDVKNILLSIGELPQEMNKYMLAIVQDILRFEMPASKIVRRVLKEMVAHNYDRFSRSGSSSAYTGYIERSPRSASTYSLDILYSGSGILRRSNLNIFQYIGKAGLHGSQVVIEAQGLEALIAATPDEGEENLDSYAGMSAILFDVQLRPVTFFNGYSDLMSKMLSASGDPISVVKGLILLIDHSQELQLQSGLKANIEVQGGLAIDISGAMEFSLWYRESKTRVKNRVTVVITTDITVDSSFVKAGLETSTETEAGLEFISTVQFSQYPFLVCMQMDKDEAPFRQFEKKYERLSTGRGYVSQKRKESVLAGCEFPLHQENSEMCKVVFAPQPDSTSSGWF
partner: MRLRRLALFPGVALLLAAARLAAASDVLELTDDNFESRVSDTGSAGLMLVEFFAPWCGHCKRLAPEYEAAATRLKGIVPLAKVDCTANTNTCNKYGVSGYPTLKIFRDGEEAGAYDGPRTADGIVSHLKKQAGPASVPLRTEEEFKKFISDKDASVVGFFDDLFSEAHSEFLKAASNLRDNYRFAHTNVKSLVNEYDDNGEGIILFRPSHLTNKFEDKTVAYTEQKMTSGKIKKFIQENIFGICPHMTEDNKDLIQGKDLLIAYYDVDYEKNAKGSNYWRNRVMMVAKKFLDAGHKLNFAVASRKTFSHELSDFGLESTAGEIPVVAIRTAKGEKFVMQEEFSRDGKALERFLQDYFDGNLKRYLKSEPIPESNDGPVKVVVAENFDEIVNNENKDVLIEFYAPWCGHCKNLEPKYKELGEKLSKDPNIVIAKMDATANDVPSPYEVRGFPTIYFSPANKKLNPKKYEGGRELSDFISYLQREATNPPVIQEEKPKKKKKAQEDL

Variants of: B1
Conditions: with pdia3_chlae PDIA3, Q4VIT4

| effect of a mutation on the interaction | Variant |
| --- | --- |
| with no effect | N780Y |
